These results are taken from publication PMC10538664 (2023).

This assay addresses prototype SARS-CoV-2 tandem RBD homotrimer (PPP) (SARS-CoV-2, UniProt P0DTC2). As to the kind of experiment: SPR. For orientation: SPR reads the build-up and loss of mass on a sensor chip optically.

B1: fragment antigen binding (Fab) of mAb CB6 (Fab, V domains shown)
VH: EVQLVESGGGLVQPGGSLRLSCAASGFTVSSNYMSWVRQAPGKGLEWVSVIYSGGSTFYADSVKGRFTISRDNSMNTLFLQMNSLRAEDTAVYYCARVLPMYGDYLDYWGQGTLVTVSS
VL: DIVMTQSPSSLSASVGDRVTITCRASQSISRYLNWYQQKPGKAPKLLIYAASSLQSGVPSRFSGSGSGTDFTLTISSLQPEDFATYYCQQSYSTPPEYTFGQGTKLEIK
The Kd is the free concentration of one partner at which half of the binding sites on the other are occupied at equilibrium, for simple one-to-one binding. Read a high Kd as weaker binding. In turn, B1 gave an equilibrium dissociation constant (Kd) of 24.3 nM.
